In publication PMC3810306:

Target: human CD47 IgSF domain (human)
Test: SPR

Kd | dissociation half-life (t1/2) | Substance
0.0111 nM |  | high-affinity SIRPα variant CV1 (consensus variant 1) monomer (designed binder)
300 to 500 nM | 1.8 s | wild-type human SIRPα allele 1 monomer (V-set Ig domain, domain 1) (domain or fragment)
